{
  "source": "patent US20240233818",
  "about": "(published 2024)",
  "binders": {"B1": {"name": "DART-D (CD137 arm) (antibody, V domains shown)", "VH": "QVQLQQPGAELVRPGASVKLSCKASGYTFTSYWINWVKQRPGQGLEWIGNIYPSDSYTNYNQKFKDKATLTVDKSSSTAYMQLSSPTSEDSAVYYCTRDYGSSYSFDYWGQGTTLTVSS", "VL": "DIQMTQTTSSLSASLGDRVTISCRPSQDISNYLNWYQQKPDGTVKLLIYYTSRLRSGVPSRFSGSGSGTDYSLTISNLEQEDIATYFCQQGDTLPYTFGGGTKLEIK"}, "B2": {"name": "DART-G4 (CD137 arm) (antibody, V domains shown)", "VH": "QVQLVQSGAEVKKPGASVKVSCKASGYTFTSYWINWVKQAPGQGLEWIGNIYPSDSYTNYNQKFKDKATITADKSTSTAYMELSSLRSEDTAVYYCTRDYGSSYSYNVWGQGTTVTVSS", "VL": "DIQMTQSPSSLSASVGDRVTITCRPSQDISNYLNWYQQKPDKTVKLLIYYTSRLRSGVPSRFSGSGSGTDFTFTISSLQPEDIATYFCQQGDTLPYTFGQGTKLEIK"}, "B3": {"name": "DART-G (CD137 arm) (antibody, V domains shown)", "VH": "B2 VH with Y106F, N107D, V108Y", "VL": "B2 VL"}, "B4": {"name": "DART-G3 (CD137 arm) (antibody, V domains shown)", "VH": "B2 VH with S103A, N107S, V108L", "VL": "B2 VL"}, "B5": {"name": "DART-G2 (CD137 arm) (antibody, V domains shown)", "VH": "B2 VH with S103A, Y106M, N107S, V108T", "VL": "B2 VL"}, "B6": {"name": "DART-B (HER2 arm) (antibody, V domains shown)", "VH": "QVQLVQSGAEVKKPGASVKVSCKASGYTFTNYGMNWVRQAPGQGLEWMGWINTNIGEPTYTEEFKGRVTMTRDTSISTAYMELSRLRSDDTAVYYCARDDGYGNRVSYWGQGTLVTVSS", "VL": "DIQMTQSPSSLSASVGDRVTITCKASQDISNYLSWFQQKPGKAPKTLIYRANRLQSGVPSRFSGSGSGTDFTLTISSLQPEDFATYYCLQHDEFPWTFGQGTKLEIK"}},
  "note": "Residue numbers refer to the chain shown, from its start.",
  "data": [
    {"molecular_target": "human CD137 (human, UniProt Q07011)", "sequence (Q07011 24-186)": "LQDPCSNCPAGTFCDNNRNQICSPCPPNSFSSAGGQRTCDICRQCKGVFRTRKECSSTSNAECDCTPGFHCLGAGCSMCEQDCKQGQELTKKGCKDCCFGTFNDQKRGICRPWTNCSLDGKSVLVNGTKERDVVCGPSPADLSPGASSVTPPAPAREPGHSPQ", "assay": "SPR", "units": {"Kd": "nM"}, "values": [
      {"binder": "B1", "Kd": 53},
      {"binder": "B2", "Kd": 28},
      {"binder": "B3", "Kd": 114},
      {"binder": "B4", "Kd": 64},
      {"binder": "B5", "Kd": 60}
    ]},
    {"molecular_target": "human HER2 (human, UniProt P04626)", "assay": "SPR", "units": {"Kd": "nM"}, "values": [
      {"binder": "B6", "Kd": 0.38}
    ]},
    {"molecular_target": "T1, cynomolgus CD137 (cynomolgus monkey)", "T1 chain": "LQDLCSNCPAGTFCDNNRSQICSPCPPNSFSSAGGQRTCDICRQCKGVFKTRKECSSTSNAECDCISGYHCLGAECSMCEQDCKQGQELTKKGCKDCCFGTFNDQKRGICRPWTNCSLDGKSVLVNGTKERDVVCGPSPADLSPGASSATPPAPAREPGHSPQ", "assay": "SPR", "units": {"Kd": "nM"}, "values": [
      {"binder": "B1", "Kd": 67},
      {"binder": "B2", "Kd": 40},
      {"binder": "B3", "Kd": 115},
      {"binder": "B4", "Kd": 78},
      {"binder": "B5", "Kd": 64}
    ]},
    {"molecular_target": "T2, cynomolgus HER2 (cynomolgus monkey)", "T2 chain": "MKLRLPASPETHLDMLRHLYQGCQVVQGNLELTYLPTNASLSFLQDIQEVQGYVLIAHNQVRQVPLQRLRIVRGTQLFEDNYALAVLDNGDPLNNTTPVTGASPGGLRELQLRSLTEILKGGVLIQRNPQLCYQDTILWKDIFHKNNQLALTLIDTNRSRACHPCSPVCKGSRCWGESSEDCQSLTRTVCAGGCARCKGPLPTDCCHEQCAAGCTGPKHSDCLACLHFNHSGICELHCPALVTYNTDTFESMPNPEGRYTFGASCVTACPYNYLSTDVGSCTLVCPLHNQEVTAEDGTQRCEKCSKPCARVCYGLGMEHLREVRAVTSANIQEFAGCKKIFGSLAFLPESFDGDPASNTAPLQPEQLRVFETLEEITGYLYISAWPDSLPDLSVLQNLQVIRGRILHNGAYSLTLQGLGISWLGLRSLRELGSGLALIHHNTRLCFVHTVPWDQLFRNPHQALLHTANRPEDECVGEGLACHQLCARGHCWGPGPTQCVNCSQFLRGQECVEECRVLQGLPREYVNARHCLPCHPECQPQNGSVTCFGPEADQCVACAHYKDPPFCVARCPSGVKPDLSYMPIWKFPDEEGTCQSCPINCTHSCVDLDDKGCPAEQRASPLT", "assay": "SPR", "units": {"Kd": "nM"}, "values": [
      {"binder": "B6", "Kd": 0.66}
    ]}
  ]
}
